Assay results reported in PMC6949295 (2020).

B1: Exo70-Flag [rat] / HA-Exo84 [not stated] (parent complex)
chain 1: MIPPQEASARRREIEDKLKQEEETLSFIRDSLEKSDQLTKNMVSILSSFESRLMKLENSIIPVHKQTENLQRLQENVEKTLSCLDHVISYYHVASDTEKIIREGPTGRLEEYLGSMAKIQKAVEYFQDNSPDSPELNKVKLLFERGKESLESEFRSLMTRHSKVISPVLVLDLISADDELEVQEDVVLEHLPESVLQDVIRISRWLVEYGRNQDFMNVYYQIRSSQLDRSIKGLKEHFRKSSSSSGVPYSPAIPNKRKDTPTKKPIKRPGRDDMLDVETDAYIHCVSAFVRLAQSEYQLLMGIIPEHHQKKTFDSLIQDALDGLMLEGENIVSAARKAIIRHDFSTVLTVFPILRHLKQTKPEFDQVLQGTAASTKNKLPGLITSMETIGAKALEDFADNIKNDPDKEYNMPKDGTVHELTSNAILFLQQLLDFQETAGAMLASQETSSSATSYNSEFSKRLLSTYICKVLGNLQLNLLSKSKVYEDPALSAIFLHNNYNYILKSLEKSELIQLVAVTQKTAERSYREHIEQQIQTYQRSWLKVTDYIAEKNLPVFQPGVKLRDKERQMIKERFKGFNDGLEELCKIQKAWAIPDTEQRDKIRQAQKSIVKETYGAFLHRYSSVPFTKNPEKYIKYRVEQVGDMIDRLFDTSA
chain 2: MSDSGASRLRRQLESGGFEARLYVKQLSQQSDGDRDLQEHRQRVQALAEETAQNLKRNVYQNYRQFIETAREISYLESEMYQLSHLLTEQKSSLESIPLALLPAAAAGASTGEDTAGAGPRERGAAQAGFLPGPAGVPREGPGTGEEGKQRTLTTLLEKVEGCRDLLETPGQYLVYNGDLVEYEADHMAQLQRVHGFLMNDCLLVATWLPQRRGMYRYNALYPLDRLAVVNVKDNPPMKDMFKLLMFPESRIFQAENAKIKREWLEVLEETKRALSDKRRREQEEAAALRAPPPVTSKGSNPFEDEAEEELATPEAEEEKVDLSMEWIQELPEDLDVCIAQRDFEGAVDLLDKLNHYLEDKPSPPSVKELRAKVDERVRQLTEVLVFELSPDRSLRGGPKATRRAVSQLIRLGQCTKACELFLRNRAAAVHTAIRQLRIEGATLLYIHKLCHVFFTSLLETAREFETDFAGTDSGCYSAFVVWARSAMGMFVDAFSKQVFDSKESLSTAAECVKVAKEHCQQLGEIGLDLTFIIHALLVKDIQGALLSYKEIIIEATKHRNSEEMWRRMNLMTPEALGKLKEEMRSCGVSNFEQYTGDDCWVNLSYTVVAFTKQTMGFLEEALKLYFPELHMVLLESLVEVILVAVQHVDYSLRCEQDPEKKTFIRQNASFLYDTVLPVVERRFEEGVGKPAKQLQDLRNASRLLRVNPESTTSVV

Variants of: B1
Assay: co-immunoprecipitation (IP: HA, blot: Flag); 293T cells; parent: 0.13
For chain 1 S47D, chain 1 S59D, chain 1 S89D, the response was 0 relative band intensity.
